According to PMC11130294 (Nature Communications, 2024):

B1: NorA (wild-type, Staphylococcus aureus efflux pump) (natural protein)
chain: MNKQIFVLYFNIFLIFLGIGLVIPVLPVYLKDLGLTGSDLGLLVAAFALSQMIISPFGGTLADKLGKKLIICIGLILFSVSEFMFAVGHNFSVLMLSRVIGGMSAGMVMPGVTGLIADISPSHQKAKNFGYMSAIINSGFILGPGIGGFMAEVSHRMPFYFAGALGILAFIMSIVLIHDPKKSTTSGFQKLEPQLLTKINWKVFITPVILTLVLSFGLSAFETLYSLYTADKVNYSPKDISIAITGGGIFGALFQIYFFDKFMKYFSELTFIAWSLLYSVVVLILLVFANGYWSIMLISFVVFIGFDMIRPAITNYFSNIAGERQGFAGGLNSTFTSMGNFIGPLIAGALFDVHIEAPIYMAIGVSLAGVVIVLIEKQHRAKLKEQNM
B2: Fab36 (Fab, V domains shown)
VH: EVQLVESGGGLVQPGGSLRLSCAASGFTFSSSSIHWVRQAPGKGLEWVASISSSSGSTSYADSVKGRFTISADTSKNTAYLQMNSLRAEDTAVYYCARYSRYYYYAWRVGGYWGGLDYWGQGTLVTVFN
VL: DIQMTQSPSSLSASVGDRVTITCRASQSVSSAVAWYQQKPGKAPKLLIYSASSLYSGVPSRFSGSRSGTDFTLTISSLQPEDFATYYCQQSSSSLITFGQGTKVEIK
notes: also called outward-open-specific Fab36

Key:
[1] = target: FabDA1; test: MST; pH 7.5: Fab labelled with a 647-nm fluorophore at 40 nM, NorA in PMAL-C8 amphipol at varied concentrations; 20 mM Tris pH 7.5, 100 mM NaCl, 0.025% Tween-20; 15 min incubation; fit with Hill slope 1.0; three replicates
[2] = target: FabDA1; test: MST; pH 5.0: Fab labelled with a 647-nm fluorophore at 40 nM, NorA in PMAL-C8 amphipol at varied concentrations; 50 mM acetate pH 5.0, 100 mM NaCl, 0.025% Tween-20; 15 min incubation; fit with Hill slope 1.0; three replicates
[3] = target: T1, Staphylococcus aureus efflux pump NorA, wild type (S. aureus, UniProt P0A0J7); test: MST; NorA in amphipol at varied concentrations mixed with fluorophore-labelled Fab at 40 nM; 20 mM Tris pH 7.5, 100 mM NaCl, 0.025% Tween-20; 15 min incubation; three replicates; details: both partners purified
T1 construct: NorA, major facilitator superfamily efflux pump of S. aureus; the construct is not described here; The C-terminal Myc tag is told only for the MRSA expression plasmid, not for this E. coli protein; also called wild-type NorA

Binder	Kd [1] [nM]	Kd [2] [nM]	binding result [3]
B1	> 24500	2900	
B2			binds
